Consider one molecule from patent publication US20130189278A1 (Merck Sharp & Dohme, published 2013).

This assay addresses recombinant human PCSK9, V5-, His-tagged (human, UniProt Q8NBP7 31-692). Kind of assay: cell-based or functional assay.

recombinant human PCSK9, V5-, His-tagged, sequence (Q8NBP7 31-692 limits assumed): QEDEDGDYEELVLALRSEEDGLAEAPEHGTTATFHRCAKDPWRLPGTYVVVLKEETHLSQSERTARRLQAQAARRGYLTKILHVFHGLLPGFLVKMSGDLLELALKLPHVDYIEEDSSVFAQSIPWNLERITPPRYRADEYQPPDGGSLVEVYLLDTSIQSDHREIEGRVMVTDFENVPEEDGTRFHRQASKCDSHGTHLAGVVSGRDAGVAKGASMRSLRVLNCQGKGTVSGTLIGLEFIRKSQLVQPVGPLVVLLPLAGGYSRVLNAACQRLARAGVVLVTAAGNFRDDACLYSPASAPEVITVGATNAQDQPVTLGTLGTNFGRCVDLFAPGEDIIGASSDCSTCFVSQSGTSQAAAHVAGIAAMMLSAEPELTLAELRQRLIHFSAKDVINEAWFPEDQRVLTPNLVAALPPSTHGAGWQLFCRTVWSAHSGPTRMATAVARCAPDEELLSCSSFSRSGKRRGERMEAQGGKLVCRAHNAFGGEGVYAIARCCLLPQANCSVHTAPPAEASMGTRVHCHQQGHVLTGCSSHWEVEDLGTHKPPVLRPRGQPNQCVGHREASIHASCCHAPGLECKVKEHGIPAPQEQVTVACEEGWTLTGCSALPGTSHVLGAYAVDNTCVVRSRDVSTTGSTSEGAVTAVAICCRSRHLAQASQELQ

B1: 3CX3D02 (Fab, V domains shown)
VH: QVQLVQSGAEVKKPGESLKISCKGSGYSFTNSWIGWVRQMPGKGLEWMGIIYPSDSYTIYSPSFQGQVTISADKSISTAYLQWSSLKASDTAMYYCARGGGYYYALMDVWAQGTLVTVSS
VL: DIQMTQSPSSLSASVGDRVTITCRASQTISTWLNWYQQKPGKAPKLLIYAASSLQSGVPSRFSGSGSGTDFTLTISSLQPEDFATYYCLQDSSLPLTFGQGTKVEIKR
Consider B1, for which the “IC50, Exopolar assay: reversal of PCSK9-dependent loss of cellular diI-LDL uptake, Fab titrated against fixed PCSK9 (25 µg/ml)” value turned out to be 269 nM.
